Experimental data reported in article doi:10.1101/2025.10.04.680454.

B1: human IL-7Rα extracellular domain (residues 37-231) with a C-terminal C-tag (domain or fragment)
chain: DYSFSCYSQLEVNGSQHSLTCAFEDPDVNITNLEFEICGALVEVKCLNFRKLQEIYFIETKKFLLIGKSNICVKVGEKSLTCKKIDLTTIVKPEAPFDLSVVYREGANDFVVTFNTSHLQKKYVKVLMHDVAYRQEKDENKWTHVNLSSTKLTLLQRKLQPAAMYEIKVRSIPDHYFKGFWSEWSPSYYFRTPEI
B2: human IL-7Rα fused to a human IgG single-chain Fc tag (Fc fusion)
chain: ESGYAQNGDLEDAELDDYSFSCYSQLEVNGSQHSLTCAFEDPDVNITNLEFEICGALVEVKCLNFRKLQEIYFIETKKFLLIGKSNICVKVGEKSLTCKKIDLTTIVKPEAPFDLSVVYREGANDFVVTFNTSHLQKKYVKVLMHDVAYRQEKDENKWTHVNLSSTKLTLLQRKLQPAAMYEIKVRSIPDHYFKGFWSEWSPSYYFRTPEINNSSGEMD

Key:
[1] = target: Mb-1 (parental minibinder), N-terminal polyhistidine tag; test: SPR
[2] = target: all four evolved minibinders (purified proteins); test: SPR
[3] = target: Mb-4 (parental minibinder), N-terminal polyhistidine tag; test: SPR
[4] = target: evolved Mb-1 (affinity matured variant), N-terminal polyhistidine tag; test: SPR
[5] = target: Mb-1 A14V displayed on the yeast cell surface (minibinder-HA-AGA2); test: flow cytometry on cells
[6] = target: Mb-1 P29S displayed on the yeast cell surface (minibinder-HA-AGA2); test: flow cytometry on cells

| Binder | Kd [1] [nM] | Kd [2] [nM] | Kd [3] [nM] | Kd [4] [nM] | Δ-log10[KD] against parental Mb-1 [5] | Δ-log10[KD] against parental Mb-1 [6] |
| --- | --- | --- | --- | --- | --- | --- |
| B1 | > 1000 | 0.56 to 34 | 7.8 | 2.1 | – | – |
| B2 | – | – | – | – | 1.18 | 0.03 |
